This passage reports indel editing activity and indel activity results from patent US20240035010, “COMPOSITIONS COMPRISING A VARIANT POLYPEPTIDE AND USES THEREOF” (Arbor Biotechnologies, Inc., published 2024).

Positions count from the first letter of the chain named.

Data set [1] addresses T1, variant nuclease SEQ ID NO: 53 (P14R, D32R, I61R, E311R, T338G, E736G).
T1 chain: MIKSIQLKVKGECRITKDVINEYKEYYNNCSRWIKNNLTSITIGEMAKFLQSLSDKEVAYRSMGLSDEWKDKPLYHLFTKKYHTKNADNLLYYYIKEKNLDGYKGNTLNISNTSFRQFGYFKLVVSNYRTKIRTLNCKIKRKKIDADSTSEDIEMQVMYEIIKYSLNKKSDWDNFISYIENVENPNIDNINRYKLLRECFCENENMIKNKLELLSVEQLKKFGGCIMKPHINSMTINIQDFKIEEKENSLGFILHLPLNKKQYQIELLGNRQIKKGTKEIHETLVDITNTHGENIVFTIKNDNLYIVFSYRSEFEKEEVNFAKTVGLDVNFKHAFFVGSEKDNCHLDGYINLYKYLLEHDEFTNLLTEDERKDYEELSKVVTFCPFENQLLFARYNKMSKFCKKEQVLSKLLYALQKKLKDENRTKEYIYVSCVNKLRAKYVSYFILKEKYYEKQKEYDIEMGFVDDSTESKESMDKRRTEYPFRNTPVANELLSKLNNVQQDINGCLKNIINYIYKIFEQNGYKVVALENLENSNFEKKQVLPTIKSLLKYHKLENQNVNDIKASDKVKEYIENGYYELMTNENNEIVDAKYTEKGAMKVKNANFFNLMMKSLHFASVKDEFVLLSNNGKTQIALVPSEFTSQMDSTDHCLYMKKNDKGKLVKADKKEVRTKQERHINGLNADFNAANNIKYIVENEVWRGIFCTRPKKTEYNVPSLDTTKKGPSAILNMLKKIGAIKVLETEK
The data set can be described thus: cell_activity; % indels; HEK293T; PAM 5'-TTTG-3'. The following applies: tags: pcDNA3.1 expression.

In data set [2] the target is T2, variant nuclease E154G combination (P14R, D32R, I61R, E311R, E154G).
T2 chain: T1 chain with E154G, G338T, G736E
The data set can be described thus: cell_activity; PAM 5'-TTTA-3'. The conditions noted are these: tags: pcDNA3.1 expression. As to the method: Approximately 16 hours prior to transfection, 25,000 HEK293T cells in DMEM/10% FBS+Pen/Strep (D10 media) were plated into each well of a 96-well plate. On the day of transfection, the cells were 70-90% confluent. For each well to be transfected, a mixture of Lipofectamine 2000™ and Opti-MEM™ was prepared and incubated at room temperature for 5 minutes (Solution 1). After incubation, the Lipofectamine 2000™:Opti-MEM™ mixture was added to a separate mixture containing nuclease plasmid, RNA guide plasmid, and Opti-MEM™ (Solution 2). In the case of negative controls, the RNA guide plasmid was not included in Solution 2. Solutions 1 and 2 were mixed by pipetting up and down, then incubated at room temperature for 25 minutes. Following incubation, the Solution 1 and 2 mixture was added dropwise to each well of a 96-well plate containing the cells. Approximately 72 hours post transfection, cells were trypsinized by adding TrypLE™ to the center of each well and incubating at 37° C. for approximately 5 minutes. D10 media was then added to each well and mixed to resuspend cells. The resuspended cells were centrifuged at 500 g for 10 minutes to obtain a pellet, and the supernatant was discarded. The cell pellet was then resuspended in QuickExtract™ buffer (Lucigen®), and cells were incubated at 65° C. for 15 minutes, 68° C. for 15 minutes, and 98° C. for 10 minutes.
This Example describes assessment of indel activity at multiple target sites using the wild-type polypeptide of SEQ ID NO: 3 or variant polypeptides of Table 4. The variant polypeptides were cloned into a pcDNA3.1 backbone (Invitrogen), and the cells were transfected as described in Example 7.
The percentage of NGS reads containing indels (% indels) were calculated. For each variant polypeptide and target, % indels were averaged across two bioreplicates and two technical replicates. These values were then compared to % indels of the wild-type polypeptide of SEQ ID NO: 3.

B1: AAVS1 crRNA ; AAVS1 target (ssRNA ; dsDNA)
RNA: CUUGUUGUAUAUGUCCUUUUAUAGGUAUUAAACAACUGAGAAUGGUGCGUCCUAGG
DNA 1: TGAGAATGGTGCGTCCTAGG
DNA 2: CCTAGGACGCACCATTCTCA
As for B1, the indel editing activity in data set [1] was 6.11 fold of WT.

B2: VEGFA crRNA ; VEGFA target (ssRNA ; dsDNA)
RNA: CUUGUUGUAUAUGUCCUUUUAUAGGUAUUAAACAACUCCAGACCACCAAUGGGCAC
DNA 1: TCCAGACCACCAATGGGCAC
DNA 2: GTGCCCATTGGTGGTCTGGA
As for B2, the indel activity in data set [2] was 2.65 fold of WT.
